Assay results published in PMC5027247 (2016).
Where two headings read alike, the source gives them in different places.

T1: TBK1 CTD V700Q (human, UniProt Q9UHD2 677-729, V700Q)
T1 sequence: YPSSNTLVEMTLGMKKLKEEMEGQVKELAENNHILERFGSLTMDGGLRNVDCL

T2: TBK1 CTD(E696K) (human, UniProt Q9UHD2 677-729, E696K)
T2 sequence: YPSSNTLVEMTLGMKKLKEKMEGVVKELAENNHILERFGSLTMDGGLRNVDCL


How the values were obtained:
Test in all cases: ITC
OPTN(26–119) E50K [1] = target: T3, OPTN(26–119) E50K (human, UniProt Q96CV9 26-119, E50K)
OPTN(26–119) E50K [2] = target: T3, OPTN(26–119) E50K; remark: listed apart in the source
Target sequence in this assay (Q96CV9 26-119 E50K): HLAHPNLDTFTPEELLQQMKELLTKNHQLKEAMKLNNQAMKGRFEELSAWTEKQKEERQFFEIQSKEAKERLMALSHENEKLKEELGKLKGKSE

TBK1 CTD V700Q [3] = target: T1, TBK1 CTD V700Q
TBK1 CTD(E696K) [4] = target: T2, TBK1 CTD(E696K)
TBK1 CTD V700Q [5] = target: T1, TBK1 CTD V700Q; remark: listed apart in the source
TBK1 CTD(E696K) [6] = target: T2, TBK1 CTD(E696K); remark: listed apart in the source

| Kd (OPTN(26–119) E50K [1]) [nM] | Kd (OPTN(26–119) E50K [2]) [nM] | Kd (TBK1 CTD V700Q [3]) [nM] | Kd (TBK1 CTD(E696K) [4]) [nM] | Kd (TBK1 CTD V700Q [5]) [nM] | Kd (TBK1 CTD(E696K) [6]) [nM] | Binder |
| --- | --- | --- | --- | --- | --- | --- |
| 100 | 100 |  |  |  |  | TBK1 CTD (residues 677–729) (domain or fragment) YPSSNTLVEMTLGMKKLKEEMEGVVKELAENNHILERFGSLTMDGGLRNVDCL |
|  |  | 6060 | 660 | 6060 | 660 | SSDNMQHAYWELKREMSNLHLVTQVQAELLRKLKTSTAIK (domain or fragment) [NAP1 TBD (residues 215–254)] |
